Assay results taken from the RNAGym collection of RNA variant scans (doi:10.1073/pnas.2313332121).

B1: TPR t1 (parent)
chain: GACCAAUCUGCCCUCAGAGCUCGAGAACAUCUUCGGAUGCAGAGGAGGCAGGCUUCGGUGGCGCGAUAGCGCCAACGUCCUCAACCUCCAAUGCAUCCCACCACAUGAUGAUGCCUGAAGAGCCUUGGUUUUUUG

Variants of: B1
Assay: polymerase ribozyme fitness, log enrichment relative to wild type (log ratio); higher = more active; in vitro selection for triplet polymerase activity
How it was run: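 Only genotypes with ≥10 input reads and ≥1 read per output were kept after Illumina sequencing of input and output libraries. These libraries were PCR-built, transcribed mutants of each subunit of a heterodimeric triplet polymerase ribozyme, each put through one triplicate in vitro selection round with frozen incubation at −7 °C, gel excision of extended constructs, streptavidin-bead capture and RT-PCR. Fitness is a logarithmic ratio of genotype enrichment to wild-type enrichment, from inverse-variance-weighted replicate averages, with the logarithm in base 2.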

Q: With C20G A50U U78C U96G U112A A118G as the variant, how does the “polymerase ribozyme fitness (log ratio)” value read?
A: -6.42

Q: Which “polymerase ribozyme fitness (log ratio)” value does the source give for C20G C99G G110C here?
A: -7.02

Q: For C20U A83C U112G, which “polymerase ribozyme fitness (log ratio)” value is on record?
A: -2.09

Q: For A18U G39A U54A C70A C124U G127A, which “polymerase ribozyme fitness (log ratio)” value is on record?
A: -4.66

Q: For A18U C70U U112C, which “polymerase ribozyme fitness (log ratio)” value is on record?
A: -1.2

Q: With A18U A75U C76G U129G as the variant, how does the “polymerase ribozyme fitness (log ratio)” value read?
A: -5.7

Q: For A18U U87G G120A, which “polymerase ribozyme fitness (log ratio)” value is on record?
A: -1.48

Q: For C20A G71A U129G, which “polymerase ribozyme fitness (log ratio)” value is on record?
A: -5.06

Q: With C20A G51C C56A C79U U106A A121U as the variant, how does the “polymerase ribozyme fitness (log ratio)” value read?
A: -7.26

Q: For C20A A84U A90G C98G U109A A121U, which “polymerase ribozyme fitness (log ratio)” value is on record?
A: -3.83

Q: For C20U U112A, which “polymerase ribozyme fitness (log ratio)” value is on record?
A: 0.887

Q: For C20U U112C, which “polymerase ribozyme fitness (log ratio)” value is on record?
A: 0.258

Q: With A18U A74U as the variant, how does the “polymerase ribozyme fitness (log ratio)” value read?
A: -3.3

Q: For U21A C62U U92C U116C A119G, which “polymerase ribozyme fitness (log ratio)” value is on record?
A: 0.3

Q: Which “polymerase ribozyme fitness (log ratio)” value does the source give for G19C A37U C124U here?
A: -1.48

Q: For G19A C62A C82A G93U U112A, which “polymerase ribozyme fitness (log ratio)” value is on record?
A: -2.13

Q: Which “polymerase ribozyme fitness (log ratio)” value does the source give for G19C C40A C85U U112A here?
A: -2.1

Q: Which “polymerase ribozyme fitness (log ratio)” value does the source give for C20A A84G C86A G128U U130C here?
A: -3.64

Q: Which “polymerase ribozyme fitness (log ratio)” value does the source give for U21A A27C U32G G71A U112C here?
A: -5.9

Q: With C20A G120U as the variant, how does the “polymerase ribozyme fitness (log ratio)” value read?
A: -2.44

Q: For C20A G120C, which “polymerase ribozyme fitness (log ratio)” value is on record?
A: -1.75

Q: With C20U A95C U129A as the variant, how does the “polymerase ribozyme fitness (log ratio)” value read?
A: -2.94

Q: With C20A G45C as the variant, how does the “polymerase ribozyme fitness (log ratio)” value read?
A: -3.43

Q: Which “polymerase ribozyme fitness (log ratio)” value does the source give for C20U G69U here?
A: -0.346

Q: Which “polymerase ribozyme fitness (log ratio)” value does the source give for G19C A41C C70G G120U here?
A: -6.52

Q: Which “polymerase ribozyme fitness (log ratio)” value does the source give for A18U U92G here?
A: -3.54

Q: Which “polymerase ribozyme fitness (log ratio)” value does the source give for A18U U59G G60A here?
A: -4.56

Q: With A18U G69U as the variant, how does the “polymerase ribozyme fitness (log ratio)” value read?
A: -0.112

Q: For G19A C53A C101U, which “polymerase ribozyme fitness (log ratio)” value is on record?
A: -2.73

Q: With C20G C124A as the variant, how does the “polymerase ribozyme fitness (log ratio)” value read?
A: -2.2

Q: With C20A C98G as the variant, how does the “polymerase ribozyme fitness (log ratio)” value read?
A: -5.84

Q: For C20U U38G C72U C102U, which “polymerase ribozyme fitness (log ratio)” value is on record?
A: -5.01

Q: With C20U C73U as the variant, how does the “polymerase ribozyme fitness (log ratio)” value read?
A: -1.6

Q: For C20A C101U, which “polymerase ribozyme fitness (log ratio)” value is on record?
A: -3.43

Q: Which “polymerase ribozyme fitness (log ratio)” value does the source give for C20A G122A here?
A: -3.47

Q: Which “polymerase ribozyme fitness (log ratio)” value does the source give for A18U C72G U130A here?
A: -4.54

Q: For C20G C49A U96G U112G C115G C123A, which “polymerase ribozyme fitness (log ratio)” value is on record?
A: -7.57

Q: Which “polymerase ribozyme fitness (log ratio)” value does the source give for U21A C76U here?
A: -0.123

Q: For G19U C53G, which “polymerase ribozyme fitness (log ratio)” value is on record?
A: -2.76

Q: Which “polymerase ribozyme fitness (log ratio)” value does the source give for G19U C73A C80U U112C C114A U126A here?
A: -1.24

Q: For C20U U78C C124G, which “polymerase ribozyme fitness (log ratio)” value is on record?
A: 0.066

Q: For U21A C53G U54G U87A, which “polymerase ribozyme fitness (log ratio)” value is on record?
A: -4.55

Q: Which “polymerase ribozyme fitness (log ratio)” value does the source give for C20A C64U U78C U96A C102G C114A here?
A: -6.83

Q: Which “polymerase ribozyme fitness (log ratio)” value does the source give for G19U U55G C70U here?
A: -3.42

Q: With A18U C31U as the variant, how does the “polymerase ribozyme fitness (log ratio)” value read?
A: -5.66

Q: With G19U C89U G120C as the variant, how does the “polymerase ribozyme fitness (log ratio)” value read?
A: -2.25

Q: For C20U A95C, which “polymerase ribozyme fitness (log ratio)” value is on record?
A: -2.07

Q: For C20A G36U G77U U116C, which “polymerase ribozyme fitness (log ratio)” value is on record?
A: -5.13

Q: With A18U G36A A50G as the variant, how does the “polymerase ribozyme fitness (log ratio)” value read?
A: -3.46

Q: Which “polymerase ribozyme fitness (log ratio)” value does the source give for G19C G63A U87C here?
A: -3.24

Q: For C20A G48U, which “polymerase ribozyme fitness (log ratio)” value is on record?
A: -3.37

Q: Which “polymerase ribozyme fitness (log ratio)” value does the source give for G19A A29C U109A G120C here?
A: -5.43

Q: For C20U C73G C114G, which “polymerase ribozyme fitness (log ratio)” value is on record?
A: -1.71

Q: Which “polymerase ribozyme fitness (log ratio)” value does the source give for G19C C22A C53G U59G C123A here?
A: -5.66

Q: For A18U G39U G61U C97U U130A, which “polymerase ribozyme fitness (log ratio)” value is on record?
A: -4.49

Q: With A18G U54A G77A U109G as the variant, how does the “polymerase ribozyme fitness (log ratio)” value read?
A: -3.13

Q: With C20A G57U C97A C115A U116C as the variant, how does the “polymerase ribozyme fitness (log ratio)” value read?
A: -6.48

Q: For C20G A83C A100U G120A U130C, which “polymerase ribozyme fitness (log ratio)” value is on record?
A: -5.79

Q: For G19U U54G C56U C123G, which “polymerase ribozyme fitness (log ratio)” value is on record?
A: -6.86

Q: With A18G G48A G63A G77A U81C A121U U126G as the variant, how does the “polymerase ribozyme fitness (log ratio)” value read?
A: -5.32

Q: For G19U G69A U106C C114A G120C, which “polymerase ribozyme fitness (log ratio)” value is on record?
A: -2.51

Q: For C20A U32C C56U G57U G60U C62G, which “polymerase ribozyme fitness (log ratio)” value is on record?
A: -5.9

Q: For G19U A41C G48U G120U, which “polymerase ribozyme fitness (log ratio)” value is on record?
A: -4.33

Q: With G19A G69A as the variant, how does the “polymerase ribozyme fitness (log ratio)” value read?
A: -4.57

Q: Which “polymerase ribozyme fitness (log ratio)” value does the source give for G19A G69U here?
A: -1.71

Q: With C20G C76U as the variant, how does the “polymerase ribozyme fitness (log ratio)” value read?
A: -3.75

Q: With G19C G71U G120U G122A C123U as the variant, how does the “polymerase ribozyme fitness (log ratio)” value read?
A: -3.78

Q: Which “polymerase ribozyme fitness (log ratio)” value does the source give for C20A C115U here?
A: -3.52

Q: With C20A C89A as the variant, how does the “polymerase ribozyme fitness (log ratio)” value read?
A: -3.94

Q: For G19C C22U A46C C114U, which “polymerase ribozyme fitness (log ratio)” value is on record?
A: -5.79

Q: For G19C G57A G69U C85G, which “polymerase ribozyme fitness (log ratio)” value is on record?
A: -4.01

Q: For C20U G39A G110U G128A, which “polymerase ribozyme fitness (log ratio)” value is on record?
A: -5.92

Q: With U21A A29C as the variant, how does the “polymerase ribozyme fitness (log ratio)” value read?
A: -3.14

Q: With G19A G61C as the variant, how does the “polymerase ribozyme fitness (log ratio)” value read?
A: -4.27

Q: Which “polymerase ribozyme fitness (log ratio)” value does the source give for C20U C62A here?
A: -2.35

Q: With C20U U96A U130G as the variant, how does the “polymerase ribozyme fitness (log ratio)” value read?
A: -4.47

Q: With C20G C115U as the variant, how does the “polymerase ribozyme fitness (log ratio)” value read?
A: -4.25

Q: Which “polymerase ribozyme fitness (log ratio)” value does the source give for G19C C40U G48U G110C here?
A: -6.52

Q: For C20A U54A U131G, which “polymerase ribozyme fitness (log ratio)” value is on record?
A: -3.27

Q: For A18U A46G G52A A118U, which “polymerase ribozyme fitness (log ratio)” value is on record?
A: -2.9

Q: Which “polymerase ribozyme fitness (log ratio)” value does the source give for G19C C72A C124A U129G here?
A: -0.719

Q: With G19A C40U G45C G61C C124A as the variant, how does the “polymerase ribozyme fitness (log ratio)” value read?
A: -3.57

Q: Which “polymerase ribozyme fitness (log ratio)” value does the source give for C20U A26U U32C G69U here?
A: -3.17

Q: For C20U A27C A84U C123A, which “polymerase ribozyme fitness (log ratio)” value is on record?
A: -5.42
